Experimental data reported in the nanobody polyreactivity screen of Harvey et al. (2022).

Test: yeast display, Sf9 membrane polyspecificity reagent, FACS + sequencing; frameworks hold sequencing errors
Summary of the method: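 A synthetic nanobody library was expressed on Saccharomyces cerevisiae BJ5465 by galactose induction for 36–48 hours. The library was stained for 1 hour at 4 °C with 10% biotinylated, detergent-solubilized Sf9 membrane reagent and enriched with streptavidin microbeads before FACS. Low and high (top ~1%) gates were set on anti-HA fluorescence for expression and streptavidin fluorescence for reagent binding, and each polyreactivity label reflects the gate of origin.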

| Sequence | polyreactivity (PSR sort gate) |
| --- | --- |
| QVQLVESGGGLVQAGGSLRLSCAASGSTFVNNAMGWYRQAPGKERELVASITQSGGSTFYADSVKGRFTISRDNAKNTVYLQMNSLKPEDTAVYYWGQGTQVTVSS | low polyreactivity |
| QVQLVESGGGLVQAGGSLRLSCAASGSTFVPYAMGWYRQAPGKERELVAAINIGGRTNYADSVKGRFTISRDNAKNTVYLQMNSLKPEDTAVYYCAAEWGYYARSQYYYWGQGTQVTVSS | low polyreactivity |
| QVQLVESGGGLVQAGGSLRLSCAASGSTFVPYTMGWYRQAPGKERELVAAISGSGGTDYADSVKGRFTISRDNAKITVYLQLNSLKPEDTAVYYCGTDGLDFWFIYDYWGQGTQVTVSS | low polyreactivity |
| QVQLVESGGGLVQAGGSLRLSCAASGSTFVPYTMGWYRQAPGKERELVAVITSGGSTNYADSVKGRFTISLDNAKNTVYLQMNSLKPEDTAVYYCDARRRGRKERGEDYWGQGTQVTVSS | high polyreactivity |
| QVQLVESGGGLVQAGGSLRLSCAASGSTFVQYAMGWYRQAPGKERELVAAIRGRGDSTYYADSVKGRFTISRDNAKNTVYLQMNSLKPEDTAVYYCAARGQGSRGMYYWGQGTQVTVSS | low polyreactivity |
| QVQLVESGGGLVQAGGSLRLSCAASGSTFVRNAMGWYRQAPGKDRELVAAIRWRSGSTYYADSVKGRFTISRDNAKNTVYLQMNSLKPEDTAVYYCAKAFSRTTYRYDYWGQGTQVTVSS | high polyreactivity |
| QVQLVESGGGLVQAGGSLRLSCAASGSTFVRNAMGWYRQAPGKERELVAAIRWRSGSTYYADSVKGRFTISRDNAKNTVYFQMNSLKPEDTAVYYCAVKGLGKMNYWGQGTQVTVSS | high polyreactivity |
| QVQLVESGGGLVQAGGSLRLSCAASGSTFVRNAMGWYRQAPGKERELVAAISWSGGRTYYADSVKGRFTISRDNAKNTVYLQMNSLKPEDTAVYYCAARGYAGVDYDYWGQGTQVTVSS | high polyreactivity |
| QVQLVESGGGLVQAGGSLRLSCAASGSTFVRNAMGWYRQAPGKERELVAAITRGGRTYYADSVKGRFTISRDNAKNTVYLQLNSLKPEVTAVYYCAKPSSPSLGGVSDRNYWGQGTQVTVSS | low polyreactivity |
| QVQLVESGGGLVQAGGSLRLSCAASGSTFVRNDKGWYRQAPGTEREFVAAINGDGRTYYADSVKGRFTISRDNEKNTVYLQMNSLKPEDTAVYYCAADWKSSRSYSYEMDYWGQGTQVTVSS | low polyreactivity |
| QVQLVESGGGLVQAGGSLRLSCAASGSTFVRNGMGWYRKAPGKERELVAAITRGGSTYYADSVKGRFTISRDNAKNTVYLQMNSLKPEDTAVYYSAKRYRGGYYYPYNYWGLGTQVTVSS | high polyreactivity |
| QVQLVESGGGLVQAGGSLRLSCAASGSTFVRNVMGWYRQAPGKERELVARISWSGTGTYYADSVKGRFTISRDNAKNTVYLQMNSLKPEDTAVYYCAARSTVYISSDYWGQGTQVTVSS | low polyreactivity |
| QVQLVESGGGLVQAGGSLRLSCAASGSTFVRYAMGWYRQAPGKERELVASISSSGSTYYADSVKGRFTISRDNAKNTVYLQMNSLKPEDTAVYYCAKQYGGRYGYWGQGTQVTLSS | low polyreactivity |
| QVQLVESGGGLVQAGGSLRLSCAASGSTFVRYAMGWYRQAPGKERELVATISSRGGRTYYADSVKGRFTISRDNAKNTVYLQMNSLKPEDTAVYYCAADRRAAVPFGYGYWGQGTQVTVSS | high polyreactivity |
| QVQLVESGGGLVQAGGSLRLSCAASGSTFVSNAMGGYRQAPGKERELVAAISSSGGRTSYADSVKGRFTISRDNAKNTVYLQMNSLKPEDTAVYYCAARFKSVDYVQYYYWGQGTQVTVSS | low polyreactivity |
| QVQLVESGGGLVQAGGSLRLSCAASGSTFVSNAMGWYRPAPGKERELVAAINGSGGITYYADSVKGRFTISRDNAKNTVYLQMNSLKPEDTAVYYCAAEYDGPSTWVDYYYHYGYWGQGTQVTVSS | low polyreactivity |
| QVQLVESGGGLVQAGGSLRLSCAASGSTFVSNVMGWYRQAPGKERELVAAITRGGSTKYADSVKGRFTISRDNAKNSVYLQMNSLKPEDTAVYYCAKRLYTRPGWYDYWGQGTQVTVSS | high polyreactivity |
| QVQLVESGGGLVQAGGSLRLSCAASGSTFVSYAMGWYRQAPGKERDFVAAITWSGGSTYYADSVKGRFTISRDNAKNTVYLQMNSLKPEDTAVYYCNARTGRSPTGFRYWGQGTQVTVSS | high polyreactivity |
| QVQLVESGGGLVQAGGSLRLSCAASGSTFVSYAMGWYRQAPGKERELVAAISFSDDSTYYADSVKGRFTISRDNAKNTVYFQMHSLKPEDTAVYYCAAASDSYVRVLEGFTFDYWGQGTQVTVSS | low polyreactivity |
| QVQLVESGGGLVQAGGSLRLSCAASGSTFVTNAMGWYRKAPGKERELVAAIRWSGGNTYYADSVKGRFTISRDNAKNTVYLQMNSLKPEDTAVYYCAAKKHLLPSYRGIRYYYWGQGTQVTVSS | high polyreactivity |
| QVQLVESGGGLVQAGGSLRLSCAASGSTFVTNAMGWYRQAPGKEREFVAAISNSSGSTYYADSVKGRFTISRDNEKNTVYLQMNSLKPEDTAVYYCNATPDDWLQEDYWGQGTQVTVSS | low polyreactivity |
| QVQLVESGGGLVQAGGSLRLSCAASGSTFVTYAMGRYRQAPGTERELVAAISRRGGSTYYADSVKGRFTISRDNAKYTVYLQLNSLKPVDTAFYYCAAVQGSYSRDGADDYWGQGTQVTVSS | high polyreactivity |

| Sequence | polyreactivity (PSR sort gate) |
| --- | --- |
| QVQLVESGGGLVQAGGSLRLSCAASGSTFVVNAMGWYRQAPGKERELVAAIAGGGSTNYADSVKGRFTISRDNAKNTVYLQMNRLKPEDTAVYYCAKDLTQSYEYDYWGQGTQVTVSS | low polyreactivity |
| QVQLVESGGGLVQAGGSLRLSCAASGSTFVVNAMGWYRQAPGKERELVAAISWSGASTYYADSVKGRFTISRDNAKNTVYLQMKSLIQEDTAVYYCAADYSHYFYYYPSFVKFDYWGQGTQVTVSS | high polyreactivity |
| QVQLVESGGGLVQAGGSLRLSCAASGSTFVVNAMGWYRQAPGKERELVAAITQSGGSTFYADSVKGRFTISRDNAKNTVYLQMNSLKPEDTAVYYRGQGTQVTVSS | low polyreactivity |
| QVQLVESGGGLVQAGGSLRLSCAASGSTFVVYAMGWYRQAPGKERELVAAISSSGGSTYYADSVKGRFTISRDNAKNTVYLQMNSLKPEDTAVYYCAAGSRFVSSRLYYWGQGTQVTVSS | high polyreactivity |
| QVQLVESGGGLVQAGGSLRLSCAASGSTFVVYAMGWYRQAPGKERELVAAITGSGGSTYYADSVKGRFTISRDNAKNTVYLQMNSLKPEDTAVYYCAADLYFYVISWGYGFYYWGQGTQVTVSS | low polyreactivity |
| QVQLVESGGGLVQAGGSLRLSCAASGSTFVVYDMGWDRQAPGKERELVAAITWSGGSTYYADSVKGRFTISRDNAKNTVYLQINSLKPEDTAVYYCNKVTWHQGHDYLGQGTQVTVSS | low polyreactivity |
| QVQLVESGGGLVQAGGSLRLSCAASGSTFVWYAMGWYRQAPGKEREFVATISWSDGSTYYADSVKGRFTISRDNAKNTVYLQKNSLKPEDTAVYYCATDVDRFFTYKYDYWGQGTQVTVSS | low polyreactivity |
| QVQLVESGGGLVQAGGSLRLSCAASGSTFVWYAMGWYRQAPGKESELVAVIDWSGGSTSYADSVKGRFTISRDNAKNTVYLQMNSLKPEDTAVYYCAAQLGVISRGNYWGQGTQVTVSS | low polyreactivity |
| QVQLVESGGGLVQAGGSLRLSCAASGSTFVWYAMGWYRQEPGKERELVAAINFGGTTYYADSVNGRFTISRDNAKNTVYLQMNSLKTEDTAVYYCATEYDYGSWYPDGWGIFDYWGQGTQVTVSS | low polyreactivity |
| QVQLVESGGGLVQAGGSLRLSCAASGSTFVWYGMGWYRQQPGNQREFVAAIYTSGGRTYYADSVKGRFTISRDNAKITVYLQMNSLKPEDTALYYCDTRPYFTYRWYDYWGQGTQVTVSS | high polyreactivity |
| QVQLVESGGGLVQAGGSLRLSCAASGSTFVWYVMGWYRQAPGNERELVAAISRSGGTTFYADSVKGRFTISRANAKNTVYLQMNSLKPEDTAVYYCAAEDVAYRPGYDYWGQGTQVTVSS | high polyreactivity |
| QVQLVESGGGLVQAGGSLRLSCAASGSTFVYMGWYRQAPGKEREFVAAITWSGGSTYYADSVKGRFTISRDNAKNTVYLQMNSLKPEDTAVNYCNAVSVIPGWARYYSWGQGTQVSVSS | low polyreactivity |
| QVQLVESGGGLVQAGGSLRLSCAASGSTFVYMGWYRQAPGKEREFVAAITWSGGSTYYADSVKGRFTISRDNAKNTVYLQMNSLKPEDTAVYYCNAVSDIPGWARYYYWGQGTQVTVSS | low polyreactivity |
| QVQLVESGGGLVQAGGSLRLSCAASGSTFVYNAMGWYRQAPGKERELVAAISSGGSTYYADSVKGRFTISRDNAKNTVYLQMNSLKPEDTAVYYCNARGSWRRDKYGTYYRYDYWGQGTQVTVSS | high polyreactivity |
| QVQLVESGGGLVQAGGSLRLSCAASGSTFVYNAMGWYRQAPGKERELVAAISSRGGGTYYADSVKGRFTISRDNAKNSVYLQMYSLKPEDTAVYYCNTLPYTHGSNDYWGQGTQVTVSS | high polyreactivity |
| QVQLVESGGGLVQAGGSLRLSCAASGSTFVYNAMGWYRQAPGKERELVAAITRRGGGTYYADSVKGRFTISRDNAKNTVYLQMNSLKPEDTAVYYCAADSRGWSLDGDYWGQGTQVTVSS | low polyreactivity |
| QVQLVESGGGLVQAGGSLRLSCAASGSTFVYNAMGWYRQAPGKERELVAGIRSSGDRTYYADSVKGRFTISRDNGKNTVYLQMNSLKPEDTAVYYCAAYLGRDPWFSRQGYGYWGQGTQVTVSS | high polyreactivity |
| QVQLVESGGGLVQAGGSLRLSCAASGSTFVYNDMGWYRQAPGKEGELVAGITTSGGSTYYADSVKGRFTISRDNAKNTVYLQINSLKPEDTAVYYCAARAFSAWLEMDYWGQGTQVTVSS | low polyreactivity |
| QVQLVESGGGLVQAGGSLRLSCAASGSTFVYNDMGWYRQAPGKERELVAVITSGGNTYYADSVKGRFTISRDNAKNTVYLQMNSLKPEDTAVYYCATRWYRFYPSDYWGQGTQVTVSS | low polyreactivity |
| QVQLVESGGGLVQAGGSLRLSCAASGSTFVYYAMGWYRPAPGKERELVAAISKRGGSTYYADSVKGRFTISRDNAKNTVYLQMNSLKPEDTAVYHCAADQARGRYTLDYWGQGTQVTVSS | high polyreactivity |
| QVQLVESGGGLVQAGGSLRLSCAASGSTFVYYAMGWYRQAPGKEREFVAAISTNGGSTYYADSVKGRYTISRDNAKNTVYLQMNSLKPEDTAVYYCAARWYWGQGTQGTVSS | high polyreactivity |
